# Results from PMC4134230.
# Tests used:
# [1] = system: Tau (hTau42, longest isoform, unphosphorylated) (Homo sapiens); assay: SPR (kinetic); details: average of six determinations, 18-22 C; Kd given as 0.04 uM; immobilized on polylysine-heparin-polylysine gold surface; 10 mM Hepes, 0.1 M NaCl, pH 7; SPR at 13-33 C, DNA immobilized on polylysine-heparin-polylysine gold surface
# [2] = system: Tau (hTau42, longest isoform, unphosphorylated) (Homo sapiens); assay: SPR (equilibrium saturation); details: immobilized on polylysine-heparin-polylysine gold surface; 10 mM Hepes, 0.1 M NaCl, pH 7; SPR at 13-33 C, DNA immobilized on polylysine-heparin-polylysine gold surface
substance,measurement,setting,value
"calf thymus DNA (activated type XV, Sigma)",Ka,[1],2.4 10^7 M^-1
same,Ka,[2],2.3 10^7 M^-1
